The supplement of paper PMC10065799, “High-throughput profiling of sequence recognition by tyrosine kinases and SH2 domains using bacterial peptide display” (eLife, 2023)

Columns and labels:
Grb2 SH2 = Grb2 SH2 (UniProt P62993); assay: SH2 binding enrichment of the phosphorylated peptide, bacterial display (enrichment ratio); higher = better substrate or ligand; peptides without Tyr show the background
SHP2-C SH2 = assay: as above
c-Src SH2 = assay: as above
Hck = Hck (UniProt P08631); assay: phosphorylation enrichment, bacterial display (enrichment ratio); higher = better substrate or ligand; peptides without Tyr show the background
FGFR1 = FGFR1 (UniProt P11362); assay: as above
Fyn = Fyn (UniProt P06241); assay: as above
MERTK = MERTK (UniProt Q12866); assay: as above
Jak2 = Jak2 (UniProt O60674); assay: as above
EPHB1 = EPHB1 (UniProt P54762); assay: as above
Fer (mouse) = assay: as above
EPHB2 = EPHB2 (UniProt P29323); assay: as above
AncSZ = assay: as above
FGFR3 = FGFR3 (UniProt P22607); assay: as above
c-Src = assay: as above
Fes = Fes (UniProt P07332); assay: as above
c-Abl (mouse) = assay: as above
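Throughout, for SH2 binding enrichment of the phosphorylated peptide, bacterial display: peptide library displayed on the E. coli surface as eCPX fusions, selected cells deep-sequenced, score is each peptide's frequency after selection divided by its frequency in the input.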
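Throughout, for phosphorylation enrichment, bacterial display: 11-residue human phosphosite peptides and single-mutation variants displayed on the E. coli surface, counted by deep sequencing, each peptide's frequency after selection divided by its frequency in the unselected input library; frequency after pTyr selection over input frequency; kinase dosed for 20-30% of maximal phosphorylation in three min.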

Chain of EPHB2 (P29323 whole entry, looked up): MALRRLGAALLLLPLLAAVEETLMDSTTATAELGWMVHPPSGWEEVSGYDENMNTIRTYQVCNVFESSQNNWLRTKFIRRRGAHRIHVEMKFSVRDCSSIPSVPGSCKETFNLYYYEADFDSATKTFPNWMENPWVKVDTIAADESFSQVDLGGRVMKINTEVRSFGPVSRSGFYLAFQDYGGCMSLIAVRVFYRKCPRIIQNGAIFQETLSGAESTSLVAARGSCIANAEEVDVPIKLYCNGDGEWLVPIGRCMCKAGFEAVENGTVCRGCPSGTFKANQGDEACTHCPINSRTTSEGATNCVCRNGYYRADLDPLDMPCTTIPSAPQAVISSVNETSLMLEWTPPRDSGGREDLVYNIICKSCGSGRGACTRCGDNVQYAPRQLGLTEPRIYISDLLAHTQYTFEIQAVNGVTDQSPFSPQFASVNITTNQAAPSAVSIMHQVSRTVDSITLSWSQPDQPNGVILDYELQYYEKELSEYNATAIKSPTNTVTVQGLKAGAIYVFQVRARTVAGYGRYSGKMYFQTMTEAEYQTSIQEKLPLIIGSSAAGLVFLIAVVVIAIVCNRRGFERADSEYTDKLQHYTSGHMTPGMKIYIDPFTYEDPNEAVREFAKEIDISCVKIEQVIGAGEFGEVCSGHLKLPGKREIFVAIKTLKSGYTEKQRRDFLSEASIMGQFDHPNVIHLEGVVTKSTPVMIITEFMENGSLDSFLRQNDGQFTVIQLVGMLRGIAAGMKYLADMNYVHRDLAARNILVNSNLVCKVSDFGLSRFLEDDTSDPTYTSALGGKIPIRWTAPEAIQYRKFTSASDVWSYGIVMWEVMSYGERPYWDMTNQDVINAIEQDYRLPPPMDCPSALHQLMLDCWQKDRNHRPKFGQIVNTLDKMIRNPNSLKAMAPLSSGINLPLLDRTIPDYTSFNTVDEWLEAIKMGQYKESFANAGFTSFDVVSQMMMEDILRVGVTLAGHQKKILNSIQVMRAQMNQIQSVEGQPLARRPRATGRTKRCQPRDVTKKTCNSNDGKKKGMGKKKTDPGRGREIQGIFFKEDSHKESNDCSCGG
Chain of Fes (P07332 whole entry, looked up): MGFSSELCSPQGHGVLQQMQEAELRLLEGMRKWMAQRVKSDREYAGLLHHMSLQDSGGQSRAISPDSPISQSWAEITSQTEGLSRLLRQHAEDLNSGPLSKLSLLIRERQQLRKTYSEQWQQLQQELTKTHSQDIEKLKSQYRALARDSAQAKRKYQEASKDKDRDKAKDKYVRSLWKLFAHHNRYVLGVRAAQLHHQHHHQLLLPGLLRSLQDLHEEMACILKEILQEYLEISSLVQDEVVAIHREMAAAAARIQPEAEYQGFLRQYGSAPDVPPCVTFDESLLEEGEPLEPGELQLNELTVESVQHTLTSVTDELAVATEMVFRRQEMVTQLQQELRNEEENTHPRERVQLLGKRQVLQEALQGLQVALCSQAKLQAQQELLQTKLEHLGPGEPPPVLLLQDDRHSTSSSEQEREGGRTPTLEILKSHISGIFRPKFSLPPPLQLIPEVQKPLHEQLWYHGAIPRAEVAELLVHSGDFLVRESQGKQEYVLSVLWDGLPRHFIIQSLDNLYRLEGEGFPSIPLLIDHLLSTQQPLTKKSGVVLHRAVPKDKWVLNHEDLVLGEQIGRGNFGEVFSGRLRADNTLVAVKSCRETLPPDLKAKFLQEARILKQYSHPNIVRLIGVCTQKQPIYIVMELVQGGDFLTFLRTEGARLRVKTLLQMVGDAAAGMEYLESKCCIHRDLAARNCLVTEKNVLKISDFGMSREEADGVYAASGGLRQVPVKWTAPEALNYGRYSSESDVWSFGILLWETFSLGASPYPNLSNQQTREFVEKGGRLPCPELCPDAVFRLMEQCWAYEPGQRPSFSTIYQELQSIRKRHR
Chain of FGFR3 (P22607 whole entry, looked up): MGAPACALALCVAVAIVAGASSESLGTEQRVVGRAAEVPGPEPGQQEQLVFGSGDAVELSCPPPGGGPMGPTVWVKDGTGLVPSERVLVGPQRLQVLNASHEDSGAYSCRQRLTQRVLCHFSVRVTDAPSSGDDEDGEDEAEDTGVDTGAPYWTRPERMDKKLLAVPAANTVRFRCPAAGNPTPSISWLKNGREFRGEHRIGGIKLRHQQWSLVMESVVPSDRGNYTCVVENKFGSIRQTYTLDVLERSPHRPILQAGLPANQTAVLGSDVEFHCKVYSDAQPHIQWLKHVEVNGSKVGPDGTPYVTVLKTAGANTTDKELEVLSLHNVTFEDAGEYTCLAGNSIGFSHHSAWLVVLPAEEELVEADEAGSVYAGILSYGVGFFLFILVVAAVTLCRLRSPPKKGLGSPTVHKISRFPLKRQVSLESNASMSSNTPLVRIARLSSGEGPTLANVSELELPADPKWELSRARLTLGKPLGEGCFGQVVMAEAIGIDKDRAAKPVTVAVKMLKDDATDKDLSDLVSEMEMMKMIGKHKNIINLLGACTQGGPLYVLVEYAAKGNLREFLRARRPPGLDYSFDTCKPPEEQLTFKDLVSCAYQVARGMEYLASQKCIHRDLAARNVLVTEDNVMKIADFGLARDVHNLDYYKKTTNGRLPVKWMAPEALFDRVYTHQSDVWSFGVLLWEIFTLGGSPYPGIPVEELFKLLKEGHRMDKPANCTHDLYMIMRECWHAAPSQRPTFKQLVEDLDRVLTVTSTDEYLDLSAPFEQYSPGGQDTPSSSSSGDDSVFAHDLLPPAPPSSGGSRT
Chain of Hck (P08631 whole entry, looked up): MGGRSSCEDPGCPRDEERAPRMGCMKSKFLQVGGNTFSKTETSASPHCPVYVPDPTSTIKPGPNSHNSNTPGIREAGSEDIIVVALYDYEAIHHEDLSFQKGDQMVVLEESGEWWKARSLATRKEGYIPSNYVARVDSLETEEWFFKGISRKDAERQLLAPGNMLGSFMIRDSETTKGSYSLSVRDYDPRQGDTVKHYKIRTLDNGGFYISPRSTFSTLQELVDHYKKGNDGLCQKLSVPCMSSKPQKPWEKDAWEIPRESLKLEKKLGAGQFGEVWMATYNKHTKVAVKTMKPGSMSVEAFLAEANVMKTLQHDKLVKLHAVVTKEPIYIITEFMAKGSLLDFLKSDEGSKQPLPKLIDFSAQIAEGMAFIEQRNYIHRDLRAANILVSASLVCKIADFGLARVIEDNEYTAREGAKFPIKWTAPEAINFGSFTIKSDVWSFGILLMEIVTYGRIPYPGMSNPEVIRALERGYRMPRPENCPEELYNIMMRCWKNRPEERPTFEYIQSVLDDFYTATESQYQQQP
Chain of Grb2 SH2 (P62993 whole entry, looked up): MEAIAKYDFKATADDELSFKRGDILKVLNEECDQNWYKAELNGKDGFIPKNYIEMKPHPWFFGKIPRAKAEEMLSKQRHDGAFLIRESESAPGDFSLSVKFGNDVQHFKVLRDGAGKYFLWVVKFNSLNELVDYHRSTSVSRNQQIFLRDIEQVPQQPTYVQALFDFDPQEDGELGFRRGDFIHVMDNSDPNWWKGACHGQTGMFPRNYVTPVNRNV
Chain of EPHB1 (P54762 whole entry, looked up): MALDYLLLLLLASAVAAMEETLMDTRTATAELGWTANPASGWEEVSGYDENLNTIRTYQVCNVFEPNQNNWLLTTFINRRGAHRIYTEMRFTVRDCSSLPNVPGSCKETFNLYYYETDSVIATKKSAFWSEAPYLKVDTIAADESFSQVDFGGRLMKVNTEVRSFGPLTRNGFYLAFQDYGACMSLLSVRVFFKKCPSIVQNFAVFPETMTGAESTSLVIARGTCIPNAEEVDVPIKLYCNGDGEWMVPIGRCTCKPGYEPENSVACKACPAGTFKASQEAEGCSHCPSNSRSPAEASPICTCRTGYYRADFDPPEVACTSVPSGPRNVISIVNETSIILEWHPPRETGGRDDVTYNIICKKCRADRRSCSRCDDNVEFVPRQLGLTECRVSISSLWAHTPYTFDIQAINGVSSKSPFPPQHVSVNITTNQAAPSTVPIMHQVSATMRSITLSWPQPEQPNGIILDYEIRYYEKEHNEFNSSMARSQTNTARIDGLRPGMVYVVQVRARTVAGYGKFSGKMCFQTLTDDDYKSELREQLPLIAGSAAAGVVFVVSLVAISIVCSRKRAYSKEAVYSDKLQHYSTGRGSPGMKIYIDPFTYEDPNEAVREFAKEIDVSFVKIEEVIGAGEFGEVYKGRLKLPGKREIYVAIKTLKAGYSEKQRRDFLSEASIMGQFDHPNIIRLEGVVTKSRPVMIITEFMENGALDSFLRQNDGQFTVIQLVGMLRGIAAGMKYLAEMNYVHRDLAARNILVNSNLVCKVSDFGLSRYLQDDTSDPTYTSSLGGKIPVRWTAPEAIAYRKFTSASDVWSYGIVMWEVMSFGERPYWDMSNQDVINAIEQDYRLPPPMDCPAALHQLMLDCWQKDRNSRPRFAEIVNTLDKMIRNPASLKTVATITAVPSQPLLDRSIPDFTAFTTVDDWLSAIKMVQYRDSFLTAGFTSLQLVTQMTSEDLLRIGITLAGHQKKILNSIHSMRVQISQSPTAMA
Chain of Fyn (P06241 whole entry, looked up): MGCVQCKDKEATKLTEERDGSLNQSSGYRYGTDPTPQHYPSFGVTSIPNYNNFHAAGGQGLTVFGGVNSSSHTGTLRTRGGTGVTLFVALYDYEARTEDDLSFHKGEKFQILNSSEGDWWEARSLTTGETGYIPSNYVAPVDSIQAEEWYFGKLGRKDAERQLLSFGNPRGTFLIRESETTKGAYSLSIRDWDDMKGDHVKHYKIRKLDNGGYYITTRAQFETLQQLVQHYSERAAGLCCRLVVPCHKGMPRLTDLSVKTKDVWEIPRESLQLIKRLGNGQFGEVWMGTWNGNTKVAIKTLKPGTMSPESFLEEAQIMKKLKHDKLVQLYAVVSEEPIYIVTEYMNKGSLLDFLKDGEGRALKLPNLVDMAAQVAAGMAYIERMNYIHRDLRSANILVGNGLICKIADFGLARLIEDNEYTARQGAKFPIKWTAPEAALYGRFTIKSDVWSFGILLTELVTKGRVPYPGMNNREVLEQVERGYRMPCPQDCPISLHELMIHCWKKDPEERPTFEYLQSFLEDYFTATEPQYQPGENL

PTTKSYFPHFD [HBA1_Y43_T42S]
SH2 binding enrichment (Grb2 SH2): 1.08
SH2 binding enrichment (SHP2-C SH2): 0.812
SH2 binding enrichment (c-Src SH2): 0.593
phosphorylation enrichment (Hck): 0.752
phosphorylation enrichment (FGFR1): 1.38
phosphorylation enrichment (Fyn): 0.431
phosphorylation enrichment (MERTK): 0.664
phosphorylation enrichment (Jak2): 0.558
phosphorylation enrichment (EPHB1): 0.746
phosphorylation enrichment (Fer (mouse)): 0.497
phosphorylation enrichment (EPHB2): 0.442
phosphorylation enrichment (AncSZ): 1.13
phosphorylation enrichment (FGFR3): 0.77
phosphorylation enrichment (c-Src): 0.498
phosphorylation enrichment (Fes): 1.42
phosphorylation enrichment (c-Abl (mouse)): 0.501

PTTKTYFPHFH [HBA1_Y43_D48H]
SH2 binding enrichment (Grb2 SH2): 0.971
SH2 binding enrichment (SHP2-C SH2): 0.981
SH2 binding enrichment (c-Src SH2): 0.761
phosphorylation enrichment (Hck): 0.688
phosphorylation enrichment (FGFR1): 0.602
phosphorylation enrichment (Fyn): 0.598
phosphorylation enrichment (MERTK): 0.605
phosphorylation enrichment (Jak2): 0.951
phosphorylation enrichment (EPHB1): 0.457
phosphorylation enrichment (Fer (mouse)): 0.496
phosphorylation enrichment (EPHB2): 0.399
phosphorylation enrichment (AncSZ): 0.721
phosphorylation enrichment (FGFR3): 0.559
phosphorylation enrichment (c-Src): 0.655
phosphorylation enrichment (Fes): 1.14
phosphorylation enrichment (c-Abl (mouse)): 0.676

PTTKTYFRHFD [HBA1_Y43_P45R]
SH2 binding enrichment (Grb2 SH2): 0.964
SH2 binding enrichment (SHP2-C SH2): 1.08
SH2 binding enrichment (c-Src SH2): 0.457
phosphorylation enrichment (Hck): 0.539
phosphorylation enrichment (FGFR1): 0.65
phosphorylation enrichment (Fyn): 0.393
phosphorylation enrichment (MERTK): 0.466
phosphorylation enrichment (Jak2): 0.959
phosphorylation enrichment (EPHB1): 0.546
phosphorylation enrichment (Fer (mouse)): 0.312
phosphorylation enrichment (EPHB2): 0.409
phosphorylation enrichment (AncSZ): 0.556
phosphorylation enrichment (FGFR3): 0.66
phosphorylation enrichment (c-Src): 0.545
phosphorylation enrichment (Fes): 0.998
phosphorylation enrichment (c-Abl (mouse)): 0.667

PTTKTYLPHFD [HBA1_Y43_F44L]
SH2 binding enrichment (Grb2 SH2): 0.901
SH2 binding enrichment (SHP2-C SH2): 0.756
SH2 binding enrichment (c-Src SH2): 0.483
phosphorylation enrichment (Hck): 0.389
phosphorylation enrichment (FGFR1): 0.508
phosphorylation enrichment (Fyn): 0.622
phosphorylation enrichment (MERTK): 0.494
phosphorylation enrichment (Jak2): 0.456
phosphorylation enrichment (EPHB1): 0.362
phosphorylation enrichment (Fer (mouse)): 0.386
phosphorylation enrichment (EPHB2): 0.489
phosphorylation enrichment (AncSZ): 0.839
phosphorylation enrichment (FGFR3): 0.58
phosphorylation enrichment (c-Src): 0.458
phosphorylation enrichment (Fes): 0.77
phosphorylation enrichment (c-Abl (mouse)): 0.307

PVKDGYQMAQP [CSF1R_Y873_L868P]
SH2 binding enrichment (Grb2 SH2): 0.838
SH2 binding enrichment (SHP2-C SH2): 0.673
SH2 binding enrichment (c-Src SH2): 0.527
phosphorylation enrichment (Hck): 0.833
phosphorylation enrichment (FGFR1): 1.05
phosphorylation enrichment (Fyn): 0.433
phosphorylation enrichment (MERTK): 0.393
phosphorylation enrichment (Jak2): 0.521
phosphorylation enrichment (EPHB1): 0.451
phosphorylation enrichment (Fer (mouse)): 0.591
phosphorylation enrichment (EPHB2): 0.474
phosphorylation enrichment (AncSZ): 0.682
phosphorylation enrichment (FGFR3): 0.694
phosphorylation enrichment (c-Src): 0.574
phosphorylation enrichment (Fes): 1.11
phosphorylation enrichment (c-Abl (mouse)): 0.278

PVQAAYRKVVA [HBB_Y131_Q132R]
SH2 binding enrichment (Grb2 SH2): 0.859
SH2 binding enrichment (SHP2-C SH2): 0.597
SH2 binding enrichment (c-Src SH2): 0.493
phosphorylation enrichment (Hck): 0.543
phosphorylation enrichment (FGFR1): 0.367
phosphorylation enrichment (Fyn): 0.407
phosphorylation enrichment (MERTK): 0.348
phosphorylation enrichment (Jak2): 0.336
phosphorylation enrichment (EPHB1): 0.199
phosphorylation enrichment (Fer (mouse)): 0.339
phosphorylation enrichment (EPHB2): 0.237
phosphorylation enrichment (AncSZ): 0.502
phosphorylation enrichment (FGFR3): 0.373
phosphorylation enrichment (c-Src): 0.421
phosphorylation enrichment (Fes): 0.505
phosphorylation enrichment (c-Abl (mouse)): 0.48

PVRIAYGRPRG [SUGP2_Y985_D986G]
SH2 binding enrichment (Grb2 SH2): 0.837
SH2 binding enrichment (SHP2-C SH2): 0.506
SH2 binding enrichment (c-Src SH2): 0.364
phosphorylation enrichment (Hck): 1.25
phosphorylation enrichment (FGFR1): 0.449
phosphorylation enrichment (Fyn): 0.639
phosphorylation enrichment (MERTK): 0.606
phosphorylation enrichment (Jak2): 1.18
phosphorylation enrichment (EPHB1): 0.643
phosphorylation enrichment (Fer (mouse)): 0.61
phosphorylation enrichment (EPHB2): 0.493
phosphorylation enrichment (AncSZ): 1.01
phosphorylation enrichment (FGFR3): 0.64
phosphorylation enrichment (c-Src): 0.816
phosphorylation enrichment (Fes): 0.523
phosphorylation enrichment (c-Abl (mouse)): 0.5

PYTDPYYDYEI [ZC3H18_Y371_A368T]
SH2 binding enrichment (Grb2 SH2): 1.13
SH2 binding enrichment (SHP2-C SH2): 0.591
SH2 binding enrichment (c-Src SH2): 2.66
phosphorylation enrichment (Hck): 2.43
phosphorylation enrichment (FGFR1): 18.9
phosphorylation enrichment (Fyn): 4.83
phosphorylation enrichment (MERTK): 3.26
phosphorylation enrichment (Jak2): 1.88
phosphorylation enrichment (EPHB1): 2.99
phosphorylation enrichment (Fer (mouse)): 4.55
phosphorylation enrichment (EPHB2): 3.3
phosphorylation enrichment (AncSZ): 3.74
phosphorylation enrichment (FGFR3): 14.7
phosphorylation enrichment (c-Src): 6.46
phosphorylation enrichment (Fes): 1.97
phosphorylation enrichment (c-Abl (mouse)): 1.59

QAYSWYQHQRA [NDST1_Y714_R709Q]
SH2 binding enrichment (Grb2 SH2): 1.23
SH2 binding enrichment (SHP2-C SH2): 1.17
SH2 binding enrichment (c-Src SH2): 1.08
phosphorylation enrichment (Hck): 0.782
phosphorylation enrichment (FGFR1): 1.22
phosphorylation enrichment (Fyn): 0.516
phosphorylation enrichment (MERTK): 3.85
phosphorylation enrichment (Jak2): 1.1
phosphorylation enrichment (EPHB1): 0.701
phosphorylation enrichment (Fer (mouse)): 6.78
phosphorylation enrichment (EPHB2): 0.901
phosphorylation enrichment (AncSZ): 1.13
phosphorylation enrichment (FGFR3): 0.883
phosphorylation enrichment (c-Src): 0.642
phosphorylation enrichment (Fes): 1.01
phosphorylation enrichment (c-Abl (mouse)): 0.8
